{"source": "the supplement of paper PMC6379048", "assay_in_all_cases": "EC50 of free RNA motif oligo competing protein binding to immobilised probe", "key": {"TIAL1": {"target": "T1, TIAL1 (UniProt Q01085)", "T1 sequence": "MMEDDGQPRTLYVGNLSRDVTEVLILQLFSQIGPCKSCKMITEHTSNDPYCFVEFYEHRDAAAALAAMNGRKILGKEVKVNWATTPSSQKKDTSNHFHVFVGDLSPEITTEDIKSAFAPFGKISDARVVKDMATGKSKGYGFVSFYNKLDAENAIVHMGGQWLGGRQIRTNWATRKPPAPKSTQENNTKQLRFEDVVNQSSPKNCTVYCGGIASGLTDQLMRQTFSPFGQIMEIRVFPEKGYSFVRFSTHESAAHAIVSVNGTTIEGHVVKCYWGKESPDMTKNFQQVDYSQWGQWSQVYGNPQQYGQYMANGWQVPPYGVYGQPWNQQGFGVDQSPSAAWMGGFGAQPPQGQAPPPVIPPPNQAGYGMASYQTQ", "summary_of_the_method": "(§1)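 HEK293-FT lysate (2.5 mg protein/well) was pre-incubated 1 h at 4°C with free RNA oligos (0 nM to 30 μM), then 30 min at 4°C with the same 5′-amino-C6 oligos coupled to NHS-Sepharose beads. Bound proteins were quantified by label-free LC-MS/MS in three biological replicates and two independent experiments, and normalised to the water control. EC50 came from a four-parameter log-logistic fit; Kd is EC50 times a protein-dependent depletion factor.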"}, "HNRNPF": {"target": "T2, HNRNPF (UniProt P52597)", "T2 sequence": "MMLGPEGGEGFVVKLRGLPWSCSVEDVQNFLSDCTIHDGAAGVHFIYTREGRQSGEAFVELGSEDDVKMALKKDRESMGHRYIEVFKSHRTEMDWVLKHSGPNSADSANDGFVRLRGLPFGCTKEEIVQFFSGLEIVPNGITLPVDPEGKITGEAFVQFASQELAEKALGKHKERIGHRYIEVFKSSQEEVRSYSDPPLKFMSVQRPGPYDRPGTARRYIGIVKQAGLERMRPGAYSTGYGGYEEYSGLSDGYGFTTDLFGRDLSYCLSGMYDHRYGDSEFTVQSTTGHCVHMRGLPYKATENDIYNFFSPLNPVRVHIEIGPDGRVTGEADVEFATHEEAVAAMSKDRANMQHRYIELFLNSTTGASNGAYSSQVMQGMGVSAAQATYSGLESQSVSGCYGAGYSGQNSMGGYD", "summary_of_the_method": "as §1"}, "C1QBP": {"target": "T3, C1QBP (UniProt Q07021)", "T3 sequence": "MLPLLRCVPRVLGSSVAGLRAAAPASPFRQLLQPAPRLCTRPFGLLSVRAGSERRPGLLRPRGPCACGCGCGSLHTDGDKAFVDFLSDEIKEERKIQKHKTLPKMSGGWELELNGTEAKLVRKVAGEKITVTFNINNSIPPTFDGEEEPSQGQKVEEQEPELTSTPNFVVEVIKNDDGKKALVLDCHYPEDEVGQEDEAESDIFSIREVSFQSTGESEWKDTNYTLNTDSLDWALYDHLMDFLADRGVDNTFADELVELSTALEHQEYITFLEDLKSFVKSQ", "summary_of_the_method": "as §1"}, "P4HB": {"target": "P4HB (UniProt P07237)", "sequence (P07237 whole entry, looked up)": "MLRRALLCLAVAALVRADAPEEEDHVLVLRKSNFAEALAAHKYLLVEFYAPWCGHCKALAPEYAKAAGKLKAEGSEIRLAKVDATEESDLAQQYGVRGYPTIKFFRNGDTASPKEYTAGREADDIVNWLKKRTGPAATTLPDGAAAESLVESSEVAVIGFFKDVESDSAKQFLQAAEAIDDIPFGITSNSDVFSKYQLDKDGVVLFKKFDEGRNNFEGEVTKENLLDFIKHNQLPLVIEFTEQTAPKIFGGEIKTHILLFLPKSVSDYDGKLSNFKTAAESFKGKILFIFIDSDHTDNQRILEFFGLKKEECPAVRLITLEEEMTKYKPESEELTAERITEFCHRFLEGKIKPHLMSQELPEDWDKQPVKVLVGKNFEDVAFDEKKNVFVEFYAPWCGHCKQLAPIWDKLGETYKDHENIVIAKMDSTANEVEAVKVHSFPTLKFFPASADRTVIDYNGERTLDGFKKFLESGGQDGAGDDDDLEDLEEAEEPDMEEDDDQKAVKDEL", "summary_of_the_method": "as §1"}, "GPATCH11": {"target": "GPATCH11 (UniProt Q8N954)", "sequence (Q8N954 whole entry)": "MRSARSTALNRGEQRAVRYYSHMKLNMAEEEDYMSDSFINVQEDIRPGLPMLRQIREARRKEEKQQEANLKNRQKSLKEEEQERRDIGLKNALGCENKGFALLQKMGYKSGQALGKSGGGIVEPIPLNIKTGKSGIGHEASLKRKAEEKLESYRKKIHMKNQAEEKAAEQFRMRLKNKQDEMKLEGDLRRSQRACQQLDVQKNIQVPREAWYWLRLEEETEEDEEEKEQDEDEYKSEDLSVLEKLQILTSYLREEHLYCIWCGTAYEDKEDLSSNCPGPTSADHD", "summary_of_the_method": "as §1"}, "GPALPP1": {"target": "T4, GPALPP1 (UniProt Q8IXQ4)", "T4 sequence": "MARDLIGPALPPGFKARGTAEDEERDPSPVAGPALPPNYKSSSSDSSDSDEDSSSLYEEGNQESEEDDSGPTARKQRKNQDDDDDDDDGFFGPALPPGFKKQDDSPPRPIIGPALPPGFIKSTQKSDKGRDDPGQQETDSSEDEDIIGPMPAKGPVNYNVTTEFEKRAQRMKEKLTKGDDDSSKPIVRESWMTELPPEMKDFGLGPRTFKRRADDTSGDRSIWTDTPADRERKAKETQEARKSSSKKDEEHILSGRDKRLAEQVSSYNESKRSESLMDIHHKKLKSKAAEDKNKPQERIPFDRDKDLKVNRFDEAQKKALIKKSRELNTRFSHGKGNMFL", "summary_of_the_method": "as §1"}, "SF3B5": {"target": "T5, SF3B5 (UniProt Q9BWJ5)", "T5 sequence": "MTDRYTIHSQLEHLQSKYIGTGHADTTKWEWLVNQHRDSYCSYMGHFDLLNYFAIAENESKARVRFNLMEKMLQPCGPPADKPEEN", "summary_of_the_method": "as §1"}, "MRPL22": {"target": "MRPL22 (UniProt Q9NWU5)", "summary_of_the_method": "as §1"}, "MRPL49": {"target": "MRPL49 (UniProt Q13405)", "summary_of_the_method": "as §1"}, "MRPL38": {"target": "MRPL38 (UniProt Q96DV4)", "summary_of_the_method": "as §1"}, "RBM38": {"target": "T6, RBM38 (UniProt Q9H0Z9)", "T6 sequence": "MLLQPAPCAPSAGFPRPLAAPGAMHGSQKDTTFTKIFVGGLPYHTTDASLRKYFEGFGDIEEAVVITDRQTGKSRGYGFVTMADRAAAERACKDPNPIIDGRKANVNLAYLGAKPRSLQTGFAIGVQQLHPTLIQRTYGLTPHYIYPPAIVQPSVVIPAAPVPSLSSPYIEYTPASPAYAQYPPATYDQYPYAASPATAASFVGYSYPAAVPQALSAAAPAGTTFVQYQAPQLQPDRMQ", "summary_of_the_method": "as §1"}}, "data": [{"sequence": "AAUAAA", "values": [{"measurement": "EC50", "setting": "TIAL1", "result": 546, "unit": "nM"}, {"measurement": "EC50", "setting": "HNRNPF", "result": 6120, "unit": "nM"}, {"measurement": "EC50", "setting": "C1QBP", "result": 1470, "unit": "nM"}, {"measurement": "EC50", "setting": "P4HB", "result": 40.4, "unit": "nM"}, {"measurement": "EC50", "setting": "GPATCH11", "result": 122, "unit": "nM"}, {"measurement": "EC50", "setting": "GPALPP1", "result": 33.8, "unit": "nM"}, {"measurement": "EC50", "setting": "SF3B5", "result": 1210, "unit": "nM"}]}, {"sequence": "CUGUCCU", "values": [{"measurement": "EC50", "setting": "MRPL22", "result": 98.4, "unit": "nM"}, {"measurement": "EC50", "setting": "MRPL49", "result": 109, "unit": "nM"}, {"measurement": "EC50", "setting": "MRPL38", "result": 119, "unit": "nM"}]}, {"sequence": "UAUUUAU", "values": [{"measurement": "EC50", "setting": "RBM38", "result": 2910, "unit": "nM"}]}]}
